This note sets out measurements from ChEMBL document CHEMBL2074239, “Characterization of uremic toxin transport by organic anion transporters in the kidney” (Kidney Int, 2004).

Series [1] concerns the target T1, Organic anion transporter 3 (Rattus norvegicus, UniProt Q9R1U7).
T1 sequence (Q9R1U7 whole entry): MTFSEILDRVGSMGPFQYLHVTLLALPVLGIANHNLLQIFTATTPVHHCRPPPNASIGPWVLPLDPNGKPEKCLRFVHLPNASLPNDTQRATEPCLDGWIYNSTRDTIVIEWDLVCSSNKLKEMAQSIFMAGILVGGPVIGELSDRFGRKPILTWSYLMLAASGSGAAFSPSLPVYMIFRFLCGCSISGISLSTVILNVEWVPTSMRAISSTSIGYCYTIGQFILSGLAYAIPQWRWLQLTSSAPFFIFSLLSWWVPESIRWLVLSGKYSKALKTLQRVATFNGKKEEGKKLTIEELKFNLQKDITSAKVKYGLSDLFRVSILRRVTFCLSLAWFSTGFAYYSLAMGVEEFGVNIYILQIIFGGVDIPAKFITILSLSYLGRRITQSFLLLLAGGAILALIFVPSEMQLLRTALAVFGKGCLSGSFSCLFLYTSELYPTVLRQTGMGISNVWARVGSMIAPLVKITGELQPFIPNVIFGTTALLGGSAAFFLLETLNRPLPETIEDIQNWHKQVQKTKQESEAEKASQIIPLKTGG
Put plainly: TP_TRANSPORTER: inhibition of benzylpenicillin uptake in Oat3-expressing HEK293 cells. Format: functional, cell-based.

The target in series [2] is T2, Organic anion transporter 3 (Homo sapiens, UniProt Q8TCC7).
T2 sequence (Q8TCC7 whole entry): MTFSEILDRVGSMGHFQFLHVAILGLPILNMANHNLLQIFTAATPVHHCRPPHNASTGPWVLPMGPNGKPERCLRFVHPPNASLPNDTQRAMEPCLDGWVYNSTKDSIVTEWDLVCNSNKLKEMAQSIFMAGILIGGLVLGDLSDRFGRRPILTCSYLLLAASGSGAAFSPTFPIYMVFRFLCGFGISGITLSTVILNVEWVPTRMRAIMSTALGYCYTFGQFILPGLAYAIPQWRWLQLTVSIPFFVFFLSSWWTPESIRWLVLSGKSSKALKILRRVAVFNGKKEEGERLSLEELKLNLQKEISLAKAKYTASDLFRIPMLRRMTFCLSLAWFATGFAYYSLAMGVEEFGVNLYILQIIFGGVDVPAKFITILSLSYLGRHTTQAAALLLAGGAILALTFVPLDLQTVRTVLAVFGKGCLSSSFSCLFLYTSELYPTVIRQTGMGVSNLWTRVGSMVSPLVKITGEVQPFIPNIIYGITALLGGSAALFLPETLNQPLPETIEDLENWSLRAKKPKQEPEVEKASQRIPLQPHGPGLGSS
Kind of series: TP_TRANSPORTER: inhibition of benzylpenicillin uptake in OAT3-expressing HEK293 cells. Format: functional, cell-based.

Substrate in series [3]: CC(=O)Oc1c[nH]c2ccccc12
Put plainly: (§1) TP_TRANSPORTER: uptake in OAT1-expressing HEK293 cell. Format: functional, cell-based.

Substrate in series [4]: CCCc1oc(CCC(=O)O)c(C(=O)O)c1C
The description is as §1. It is filed as functional, cell-based.

Substrate in series [5]: CCCc1oc(CCC(=O)O)c(C(=O)O)c1C
Put plainly: (§2) TP_TRANSPORTER: uptake in Oat3-expressing HEK293 cells. It is filed as functional, cell-based.

Substrate in series [6]: O=S(=O)(O)Oc1c[nH]c2ccccc12
The series is described as §2. It is filed as functional, cell-based.

Substrate in series [7]: O=C(O)CNC(=O)c1ccccc1
Put plainly: cells, lysate or membranes named.

Substrate in series [8]: CCCc1oc(CCC(=O)O)c(C(=O)O)c1C
Kind of series: (§3) TP_TRANSPORTER: uptake in OAT3-expressing HEK293 cells. Format: functional, cell-based.

Substrate in series [9]: O=S(=O)(O)Oc1c[nH]c2ccccc12
The description is as §3. Format: functional, cell-based.

Turning to `CC(=O)Oc1c[nH]c2ccccc12` [INDOLE ACETATE], the Ki (commonly the dissociation constant of the complex between target and ligand, obtained from inhibition or displacement) turned out to be 582 µM in [1] and 491 µM in [2].
The matching figures for `O=C(O)CNC(=O)c1ccccc1` [HIPPURIC ACID]: 19 µM and 31 µM.

B1: Solute carrier family 22 member 6 (Homo sapiens) (protein)
chain: MAFNDLLQQVGGVGRFQQIQVTLVVLPLLLMASHNTLQNFTAAIPTHHCRPPADANLSKNGGLEVWLPRDRQGQPESCLRFTSPQWGLPFLNGTEANGTGATEPCTDGWIYDNSTFPSTIVTEWDLVCSHRALRQLAQSLYMVGVLLGAMVFGYLADRLGRRKVLILNYLQTAVSGTCAAFAPNFPIYCAFRLLSGMALAGISLNCMTLNVEWMPIHTRACVGTLIGYVYSLGQFLLAGVAYAVPHWRHLQLLVSAPFFAFFIYSWFFIESARWHSSSGRLDLTLRALQRVARINGKREEGAKLSMEVLRASLQKELTMGKGQASAMELLRCPTLRHLFLCLSMLWFATSFAYYGLVMDLQGFGVSIYLIQVIFGAVDLPAKLVGFLVINSLGRRPAQMAALLLAGICILLNGVIPQDQSIVRTSLAVLGKGCLAASFNCIFLYTGELYPTMIRQTGMGMGSTMARVGSIVSPLVSMTAELYPSMPLFIYGAVPVAASAVTVLLPETLGQPLPDTVQDLESRWAPTQKEAGIYPRKGKQTRQQQEHQKYMVPLQASAQEKNGL
B1: the Km (usually the substrate concentration at which the rate is half of its maximum) amounted to 14 µM in series [3] and 141 µM in series [4].

B2: Organic anion transporter 3 (Rattus norvegicus) (protein)
chain: T1 sequence (Q9R1U7 whole entry)
Take B2: the values for the Km in series [5] and in series [6] were 11 µM and 174 µM, respectively.

B3: Solute carrier family 22 member 6 (Rattus norvegicus) (protein)
chain: MAFNDLLKQVGGVGRFQLIQVTMVVAPLLLMASHNTLQNFTAAIPPHHCRPPANANLSKDGGLEAWLPLDKQGQPESCLRFTSPQWGPPFYNGTEANGTRVTEPCIDGWVYDNSTFPSTIVTEWNLVCSHRAFRQLAQSLYMVGVLLGAMVFGYLADRLGRRKVLILNYLQTAVSGTCAAYAPNYTVYCVFRLLSGMSLASIAINCMTLNVEWMPIHTRAYVGTLIGYVYSLGQFLLAGIAYAVPHWRHLQLVVSVPFFIAFIYSWFFIESARWYSSSGRLDLTLRALQRVARINGKQEEGAKLSIEVLRTSLQKELTLSKGQASAMELLRCPTLRHLFLCLSMLWFATSFAYYGLVMDLQGFGVSMYLIQVIFGAVDLPAKFVCFLVINSMGRRPAQMASLLLAGICILVNGIIPKSHTIIRTSLAVLGKGCLASSFNCIFLYTGELYPTVIRQTGLGMGSTMARVGSIVSPLVSMTAEFYPSMPLFIFGAVPVVASAVTALLPETLGQPLPDTVQDLKSRSRGKQNQQQQEQQKQMMPLQASTQEKNGL
Turning to B3, the Km in series [7] was 28 µM.

B4: Organic anion transporter 3 (Homo sapiens) (protein)
chain: T2 sequence (Q8TCC7 whole entry)
B4: the results for the Km in series [8] and in series [9] were 27 µM and 263 µM, respectively.
